From the supplement of paper PMC12042874
± gives the uncertainty stated by the source.

Test: amyloid nucleation score (Sup35N fusion, yeast selection) (log enrichment); library NNK1; higher = more nucleation; inactive = no reads after selection
Outline: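 The nucleation score is the log enrichment of output over input reads, calculated with DiMSum and centred on the mode score of non-aggregating sequences. Sequences with under 100 input reads were excluded. Reads came from Illumina sequencing of plasmid inserts from psi-negative yeast expressing Sup35N fused to peptides of 20 random codons, induced 24 hours with 100 μM copper sulfate and grown 7 days at 30°C without adenine and uracil.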
For ISCQQSE, the amyloid nucleation score was -1.57 ± 2.4.
Substance FRRIFSWACPV has an amyloid nucleation score of 0.352 ± 0.58.
With HGIIHFVLQMW the amyloid nucleation score was 1.85 ± 0.49.
DYGVMWI showed an amyloid nucleation score of 0.296 ± 0.41.
With MVKYPVTKNSSLPCSTRLTF the amyloid nucleation score was 1.01 ± 0.47.
With NGSADNIIVYGYDANLRWVR the amyloid nucleation score was 0.262 ± 0.43.
With VVLPWSFIWRCGVERQ the amyloid nucleation score was -0.812 ± 0.42.
FSYRWGLVFSFRDVKLL gave an amyloid nucleation score of 2.27 ± 0.11.
For VWYVLMSSSVTYYLSR, the amyloid nucleation score was -0.075 ± 0.55.
For VDNNARDTSVGSALENMWVL, the amyloid nucleation score was 1.16 ± 0.62.
Work on FCVSQVFRDLS yielded an amyloid nucleation score of -0.315 ± 0.37.
TYHVSEV gave an amyloid nucleation score of -0.175 ± 0.24.
TNINSSTDKRLPTET showed an amyloid nucleation score of -0.013 ± 0.5.
For KWYERLCIRATLKATLGYFT, the amyloid nucleation score was 0.055 ± 0.69.
Work on FADIKYLSTFG yielded an amyloid nucleation score of -0.045 ± 0.37.
Work on NYNVTNNALADR yielded an amyloid nucleation score of -0.368 ± 1.7.
Work on QFLRALGYAERRVGRRWLGW yielded an amyloid nucleation score of -0.065 ± 0.71.
For MITWMYASWYNRPVLVYQFW, the amyloid nucleation score was 0.233 ± 0.28.
Work on HLKHVWSYLPSSNVEEMQ yielded an amyloid nucleation score of 0.766 ± 0.63.
In the case of MLRTAMKCWSTSMGDCLEAF, the amyloid nucleation score is reported as 0.619 ± 0.48.
Substance TWIKILSGPLYKFCI has an amyloid nucleation score of -0.2 ± 0.56.
With FMYILYYDMWYACASFR the amyloid nucleation score was “inactive”.
Work on LMWVSRR yielded an amyloid nucleation score of 0.13 ± 0.38.
Work on IYAGHRQHGAV yielded an amyloid nucleation score of -0.386 ± 0.55.
TCVGDCGCIGWSTIFFSDYS gave an amyloid nucleation score of 1.43 ± 0.72.
Work on RMWRYASCHYI yielded an amyloid nucleation score of 1.73 ± 0.76.
For PLYGASDK, the amyloid nucleation score was -0.277 ± 0.97.
In the case of IFVALRRD, the amyloid nucleation score is reported as -1.29 ± 1.3.
For GNMSPFKNLTFAEQLDAPRD, the amyloid nucleation score was 0.016 ± 1.2.
For SYQLSSVMDLAWMTHSTFGS, the amyloid nucleation score was 1.8 ± 0.2.
YHVDC gave an amyloid nucleation score of -0.13 ± 0.34.
With LVLAENCR the amyloid nucleation score was -0.672 ± 0.68.
RIVQLFSRRNMRCFFIKE showed an amyloid nucleation score of 3.07 ± 0.09.
For ISYQVLFIDRWGCRSLPCVW, the amyloid nucleation score was 0.395 ± 0.39.
In the case of RWTEKGK, the amyloid nucleation score is reported as -0.332 ± 1.9.
Work on IDHSTRVNPGEPLQVLRGGL yielded an amyloid nucleation score of 4.29 ± 0.088.
With TSSWDSPCYQEAVFIGGYYI the amyloid nucleation score was 0.619 ± 0.47.
Substance TASIDEQHHWTRQY has an amyloid nucleation score of 0.32 ± 0.36.
For STVIHN, the amyloid nucleation score was 1.23 ± 0.84.
AWKGRLAYKWIGNMMAGLVW showed an amyloid nucleation score of 0.005 ± 0.32.
In the case of VLVRAWTLDCCLLFVMMVVS, the amyloid nucleation score is reported as 0.558 ± 0.46.
For MRLHLGWNYEMHRKNRALSI, the amyloid nucleation score was -0.312 ± 1.4.
In the case of GWHLHFC, the amyloid nucleation score is reported as 0.492 ± 0.22.
RFFPLVLGSLKYM showed an amyloid nucleation score of 0.827 ± 0.7.
Substance RAGTFTVSTQGPS has an amyloid nucleation score of 0.268 ± 0.28.
With YNSFKAVNPLKVGLVYMLKL the amyloid nucleation score was 0.021 ± 0.55.
SFESYEH gave an amyloid nucleation score of 1.29 ± 0.9.
In the case of FINRGAGPTLSRGQSRYNSA, the amyloid nucleation score is reported as 0.011 ± 0.3.
Work on VFAMPYYSCGVLWNRGNW yielded an amyloid nucleation score of 0.566 ± 0.48.
SMGVMSCNMSWSSAWCVMCV showed an amyloid nucleation score of 0.289 ± 0.42.
Substance SGSRGMFSKCVDK has an amyloid nucleation score of 1.86 ± 0.1.
With KSCTCRNSSYRYVHINLARY the amyloid nucleation score was -0.253 ± 0.6.
With CPRTWFLENNRVTIMHFYRG the amyloid nucleation score was 6.67 ± 0.08.
Substance DLFYYLRRLITRTWFM has an amyloid nucleation score of 1.05 ± 0.27.
Work on DWVVFWIRSFILSPPRAHQN yielded an amyloid nucleation score of 0.025 ± 0.41.
FSRNAAYMIICSTGRRKFWH gave an amyloid nucleation score of 3.75 ± 0.074.
RSQCQAGCELYGFA showed an amyloid nucleation score of -0.303 ± 0.78.
VKGSGGGWFERNSGAPRKVF showed an amyloid nucleation score of 1.03 ± 0.38.
For TGDLGRTGKVTLGTLEDSKI, the amyloid nucleation score was -0.694 ± 0.56.
In the case of FRPMEWLTFCSVRGLLLTIP, the amyloid nucleation score is reported as “inactive”.
LVNNSSCYHCQRLGQLEVNK showed an amyloid nucleation score of 0.215 ± 0.33.
HQTEEISKSSFFQCNMVQCW showed an amyloid nucleation score of 2.94 ± 0.071.
Work on MKVIDFVGFPFMGWRKWKTW yielded an amyloid nucleation score of -0.063 ± 0.35.
For MSLSAVSNMVLMKGVGMR, the amyloid nucleation score was -0.73 ± 0.93.
Work on TSIMRVTILLISGGRLDVFL yielded an amyloid nucleation score of -0.896 ± 1.
FIGPRN showed an amyloid nucleation score of -1.05 ± 1.2.
Work on SSMILSNGVFNCQMGFLACK yielded an amyloid nucleation score of 0.461 ± 0.43.
In the case of KDLEPVSARMFLLLLICLA, the amyloid nucleation score is reported as 0.057 ± 0.52.
In the case of CQIPVFENYFLHLGWSYAPL, the amyloid nucleation score is reported as 0.224 ± 1.4.
Work on HYRSTGMMESSRG yielded an amyloid nucleation score of 0.522 ± 0.6.
Work on LVMLRCAMTLCSIMLNYTPR yielded an amyloid nucleation score of 0.89 ± 0.39.
For LDYPISVIVPGTDQSLEFLP, the amyloid nucleation score was “inactive”.
